The record followed here is patent US20240325495A1, “FUSION PROTEINS FOR THE TREATMENT OF DISEASE” (Bristol-Myers Squibb Company, priority 2020, published 2024).

The subject of one data set is rats and monkeys. Briefly: Toxicity studies in rats and monkeys: common PD and safety findings. In kind it is in vivo. As to conditions: GLP pivotal nonclinical studies. An excerpt: (§1) The single- and repeat-dose toxicity of BMS-986326 were characterized in a series of studies in rats for up to 2 weeks and in monkeys up to 12 weeks using selected dosing frequencies. Pivotal good laboratory practice (GLP) repeat-dose studies in both species employed SC administration of BMS-986326 and consisted of two 2-week studies in rats using differing dose frequencies (once weekly [QW] vs twice weekly [2QW]), a 2-week once weekly dosing study in monkeys, and a 12-week (once every 3 week, Q3W) dosing study in monkeys. In addition, single-dose exploratory studies were initially completed in both rats and monkeys to explore the tolerability of BMS-986326, and a single-dose GLP IV toxicity and cardiovascular safety study was also completed in telemeterized monkeys using IV dosing to support IV administration in the first-in-human (FIH) single-ascending dose (SAD) study (IM034001).
Intended and unintended PD effects occurred in a dose-dependent manner across all doses of each toxicity study and were generally more pronounced in monkeys than in rats. As an IL-2R agonist, BMS-986326 induced maximal phosphorylation of STAT5 in Treg cells (72% to 95%) across all doses in rats and monkeys, increased Treg cells (up to 63× in monkeys) and/or CD25 expression on CD4 Tregs (up to 4.5× in rats), and raised serum levels of IL-10 (up to 2× in rats and 87× in monkeys). […]

In data set [1] the target is IL-2Rβγ (as a pre-assembled heterodimer). Briefly: Binding affinity to rat IL-2Rβγ.
The target of data set [2] is T1, IL-2Rβγ (as a pre-assembled heterodimer) (Mus musculus, UniProt P16297+P34902).
T1 sequence (P16297 27-240 limits assumed): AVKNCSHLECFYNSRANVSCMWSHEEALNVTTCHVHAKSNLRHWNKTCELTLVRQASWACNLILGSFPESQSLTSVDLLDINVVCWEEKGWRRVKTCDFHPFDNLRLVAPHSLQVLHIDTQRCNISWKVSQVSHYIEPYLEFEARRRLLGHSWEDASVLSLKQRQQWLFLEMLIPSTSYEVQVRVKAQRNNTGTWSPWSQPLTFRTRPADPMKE
T1 sequence (P34902 23-263 limits assumed): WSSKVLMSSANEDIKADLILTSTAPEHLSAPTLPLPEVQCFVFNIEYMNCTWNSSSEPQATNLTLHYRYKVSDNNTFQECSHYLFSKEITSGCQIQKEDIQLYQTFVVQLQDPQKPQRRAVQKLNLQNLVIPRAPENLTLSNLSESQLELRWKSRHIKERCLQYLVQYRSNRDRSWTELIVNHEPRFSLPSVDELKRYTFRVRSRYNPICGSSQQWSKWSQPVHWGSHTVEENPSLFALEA
As to the kind of experiment: Binding affinity to mouse IL-2Rβγ.

Data set [3] relates to monkeys. As to the kind of experiment: Toxicity studies in monkeys: ADA and PD effects. Format: in vivo.
Text: as §1
(§2) In rats, BMS-986326 was noted to be highly immunogenic, with ADA formation occurring in 84% of BMS-986326-treated rats. In general, the presence of ADA was associated with reduced exposure and loss of PD activity, but was not associated with toxicity.
(§3) Intended and unintended PD effects occurred in a dose-dependent manner across all doses of each toxicity study and were generally more pronounced in monkeys than in rats. As an IL-2R agonist, BMS-986326 induced maximal phosphorylation of STAT5 in Treg cells (72% to 95%) across all doses in rats and monkeys, increased Treg cells (up to 63× in monkeys) and/or CD25 expression on CD4 Tregs (up to 4.5× in rats), and raised serum levels of IL-10 (up to 2× in rats and 87× in monkeys). In addition to the desired pharmacologic effects on Tregs, BMS-986326 also led to unintended effects including dose-dependent activation of conventional CD4 and CD8 T cell populations and NK cells, with concomitant elevation of serum IL-5, MCP-1, and perforin. At higher doses of BMS-986326 when dosed weekly in monkeys, increases in B cells (1.6×) and other inflammatory cytokines such as […] (7.9×), IL-1Ra (49×), and IL-6 (5.1×) were also noted. These inflammatory cytokines were not elevated when lower doses of BMS-986326 were given less frequently (Q3W) in the 12-week monkey toxicity study.

A short description of data set [4]: Linker-cleavage ex vivo in monkey serum samples (LC-MS/MS). Format: in vitro ADME. As to conditions: monkey serum samples ex vivo after SC administration, up to 168 hours. The procedure:
Various in vitro and in vivo studies were conducted to characterize the PK of BMS-986326 in the nonclinical setting.

Data set [5] concerns rats. Briefly: Toxicity studies in rats: ADA and PD effects. Format: in vivo.
Text: as §1, §2
as §3, with “These inflammatory cytokines were not elevated when lower doses of BMS-986326 were given less frequently (Q3W) in the 12-week monkey toxicity study.” left out

Data set [6] concerns rats. Briefly: 2-week toxicity study in rats, once weekly SC. In kind it is in vivo. An excerpt:
The highest exposures were noted during the first week of each study and diminished considerably during the second week, due to ADA impact. […] Splenic capsular fibroplasia with inflammation was considered adverse at all twice weekly doses due to moderate to marked severity and was also associated with minimal to mild inflammation in the mesentery (adjacent to the stomach and pancreas), which further contributed to the adversity of the finding. […] The primary BMS-986326-related effects were mostly minimal in severity at all once weekly doses (0.25, 0.5, or 1 mg/kg) and included increased eosinophils (1.9× to 6.7×); minimal capsular fibroplasia/fibrosis of spleen without inflammation or involvement of adjacent mesentery; and pharmacologically mediated infiltration of eosinophils into a few tissues, none of which were considered adverse due to low magnitude of change and lack of evidence of any compromise in functional integrity of organs involved.

Data set [7] relates to monkeys. As to the kind of experiment: Single-dose exploratory tolerability PK/PD study, SC, monkeys.

Bounds are passed on as bounds.

Take “BMS-986326: recombinant fusion protein of human IL2 and extracellular domain of human CD25, (GGGS)3 linker, non-covalent self-blocking homodimer”: the “capillary leak syndrome (CLS)” value in the data set on rats and monkeys is “has not been observed”. Besides, the dissociation constant Kd in data set [1] was over 4 µM. The substance also displayed a dissociation constant (Kd) in data set [2] of over 4 µM. In the data set on monkeys [3], the “increase in Treg cells” value is “up to 63 ×” and the “increase in serum levels of IL-10” value was at most 87 ×. For the same substance, in the data set with monkeys [3] (higher doses dosed weekly), the “increase in B cells” value came out at 1.6 ×, the “increase in IFN-7” value is 7.9 ×, the “increase in IL-1Ra” value amounted to 49 × and the “increase in IL-6” value came to 5.1 ×. Also, the ADA development entry in the data set with monkeys [3] (pivotal toxicity studies) is “generally did not develop”. Also, the linker-cleavage entry in data set [4] is “did not show signs of linker-cleavage”. In addition, in the data set with rats [5], the “ADA formation, % of treated rats” value was determined as 84%; the “increase in CD25 expression on CD4 Tregs” value is listed as “up to 4.5 ×”; the “increase in serum levels of IL-10” value is recorded as “up to 2 ×”. Also, the “mean AUC at NOAEL” value in the data set with rats [6] (1 mg/kg once weekly) is 162 µg·h/mL. Moreover, in the data set on rats [6] (once weekly dosing for 2 weeks), the NOAEL is 1 mg/kg. Moreover, the “expansion and proliferation of Tconv and CD8+ T cells” value in the data set on monkeys [7] (2 highest doses tested) is “dose-dependent expansion and proliferation”. The “fold increase of % Treg above pre-dose at peak” value in the data set on monkeys [7] (single SC […]) is on record as 4.8 fold. In the data set with monkeys [7] (single SC dose), the dose not tolerated was 2.5 mg/kg and the well tolerated doses entry is “up to 0.75 mg/kg”.
